B1: Rat PAMP (peptide)
peptide: ARLDTSSQFRKKWNKWALSR-NH2
B2: mouse PAMP (peptide)
peptide: AGPDTPSQFRKKWNKWALSR-NH2
B3: human PAMP (10-20) (peptide)
peptide: RKKWNKWALSR
modifications: ends and bridges not checked
notes: also called N-terminally truncated human PAMP, residues 10-20
B4: human PAMP (12-20) (peptide)
peptide: KWNKWALSR
modifications: not fully specified (C-terminus); ends and bridges not checked
notes: also called N-terminally truncated human PAMP, residues 12-20
B5: monoclonal antibody EGX-P-E9 (antibody, V domains shown)
VH: EVQLQQSGAELVRSGASVKLSCTASGFNIKDYYIHWVKQGPEQGLEWVGYIDPENGETAYAPKFQGKATLTADTSSNTAYLQLISLTSEDTAVYYCNAPYFSLGRNYWGQGTTLTVSS
VL: NVLMTQTPLSLPVSLGDQASISCRSSQSIVHGNGDTYLEWYLQKPGQSPKLLIYKVSNRFSGVPDRFSGSGSGTDFTLKIRRVEAEDLGVYYCFQGSHVPLTFGAGTKLELK
notes: Mouse IgG purified from hybridoma medium with Protein G; also called anti-PAMP EGX-P-E9 IgG; antibody of hybridoma clone PTA-7958
B6: human PAMP (8-20) (peptide)
peptide: EFRKKWNKWALSR
modifications: ends and bridges not checked
notes: also called N-terminally truncated human PAMP, residues 8-20
B7: native (non-biotinylated) human PAMP (peptide)
peptide: ARLDVASEFRKKWNKWALSR-NH2
notes: also called human full length PAMP; hum FL
B8: human PAMP (13-20) (peptide)
peptide: WNKWALSR
modifications: ends and bridges not checked
notes: also called N-terminally truncated human PAMP, residues 13-20; C-terminal-most 8 residues of PAMP

For test [1], the target named is B5. The test is described as follows: competitive ELISA: EGX-P-E9-coated wells, 10 nM biotinylated human full-length PAMP plus 1 µM (100x) unlabeled competitor peptide, streptavidin-peroxidase, OD. Here is the method: (§1) The activity of the purified monoclonal antibody EGX-P-E9 was examined by ELISA (Enzyme Linked Immunosorbent Assay, FIG. 1). Wells of a 96-well microtiter plate were coated with 5 μg/ml anti-PAMP EGX-P-E9 IgG diluted in PBS for several hours. After washing wells with PBS, the coated wells were then incubated with a skim milk-PBS solution (Milk/PBS) to block non-specific antigen-binding. To determine the EC50, an estimate of the dissociation constant, various concentration (12 μM to 2 μM in Milk/PBS) of biothinylated human PAMP (biotinylated to an added N-terminal cysteine) was incubated in EGX-P-E9-coated wells. After washing wells with PBS+0.05% Tween 20 (PBST), the EGX-P-E9-biotin-PAMP complex was captured by the streptavidin-peroxidase conjugate and quantified by measuring the A450 using the peroxidase substrate TMB fluorescent reagent (Sigma Aldrich) and Benchmark microplate reader (BioRad).
The specificity of anti-PAMP EGX-P-E9 was also tested by ELISA with competitor PAMP peptides (FIG. 2). Antibody EGX-P-E9-coated wells were loaded with 10 nM biotinylated human full-length PAMP in Milk/PBS supplemented with one hundred fold excess (1 μM) of the following unlabeled competitor PAMP peptides: Rat PAMP, mouse PAMP, human full length PAMP (hum FL), and various N-terminally truncated human PAMPs (containing only residues 8-20, 10-20, 12-20 or 13-20). Quantification of the EGX-P-E9-biotin-PAMP complex was done as described above.
A general note: An ELISA detects its analyte on a solid surface through an enzyme-linked reagent.

In the test “human PAMP (13-20)” the target is B8. The test is described as follows: competition ELISA with truncated PAMP peptides. Here is the method: as §1
The specificity of anti-PAMP EGX-P-E9 was also tested by ELISA with competitor PAMP peptides (FIG. 2). […] Quantification of the EGX-P-E9-biotin-PAMP complex was done as described above.

The target of test [2] is T1, biotinylated human PAMP (biotinylated to an added N-terminal cysteine) (human, not fully specified; biotin on the added N-terminal cysteine; C-terminal amide).
T1 construct: also called biotin-PAMP; biotinylated human full-length PAMP
T1 peptide: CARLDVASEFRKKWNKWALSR
As to the kind of experiment: ELISA, antibody-coated wells, titration of biotinylated human PAMP, streptavidin-peroxidase detection. Here is the method:
as §1

The target of test [3] is B5. The test is described as follows: competition ELISA, non-biotinylated PAMP against 6.2 nM biotinylated PAMP on EGX-P-E9-coated wells. On the procedure: as §1
To confirm the affinity for PAMP, IC50 values were determined by competing the binding of the EGX-P-E9 antibody to the biotinylated PAMP with native (non-biotinylated) human PAMP. […] After washing the wells with PBST, the EGX-P-E9-biotin-PAMP complex was detected using the streptavidin-peroxidase conjugate and quantified by measuring the A450 using the peroxidase substrate TMB fluorescent reagent (Sigma Aldrich) and Benchmark microplate reader (BioRad) as above.

No end group written: not given here.

For the molecule B1, the binding result in test [1] is “binds”.

On to B2, for which the binding result in test [1] is “binds”.

Consider B3, for which, in test [1], the binding result is “binds”.

On to B4, for which, in test [1], the binding result was “binds”.

The term EC50 denotes the concentration giving half of the maximal effect. Read a low EC50 as a more potent agent. As to B5, the binding result with human PAMP (13-20) is on record as “binds”. The same molecule came in with a 50% effective concentration (EC50) in test [2] of 6.2 nM.

As for B6, the binding result in test [1] is “binds”.

For orientation: IC50 means the concentration that gives 50% inhibition. Take B7: the IC50 in test [3] was found to be 4 nM.

With B8, in test [1], the binding result is “binds”.

The record behind these values is patent US20110301332A1 (CEPHALON AUSTRALIA VIC, published 2011).
